Source: IntAct's records for PubMed 15908944

Target: forh_dicdi forH (UniProt Q54N00)
Sequence (Q54N00 whole entry): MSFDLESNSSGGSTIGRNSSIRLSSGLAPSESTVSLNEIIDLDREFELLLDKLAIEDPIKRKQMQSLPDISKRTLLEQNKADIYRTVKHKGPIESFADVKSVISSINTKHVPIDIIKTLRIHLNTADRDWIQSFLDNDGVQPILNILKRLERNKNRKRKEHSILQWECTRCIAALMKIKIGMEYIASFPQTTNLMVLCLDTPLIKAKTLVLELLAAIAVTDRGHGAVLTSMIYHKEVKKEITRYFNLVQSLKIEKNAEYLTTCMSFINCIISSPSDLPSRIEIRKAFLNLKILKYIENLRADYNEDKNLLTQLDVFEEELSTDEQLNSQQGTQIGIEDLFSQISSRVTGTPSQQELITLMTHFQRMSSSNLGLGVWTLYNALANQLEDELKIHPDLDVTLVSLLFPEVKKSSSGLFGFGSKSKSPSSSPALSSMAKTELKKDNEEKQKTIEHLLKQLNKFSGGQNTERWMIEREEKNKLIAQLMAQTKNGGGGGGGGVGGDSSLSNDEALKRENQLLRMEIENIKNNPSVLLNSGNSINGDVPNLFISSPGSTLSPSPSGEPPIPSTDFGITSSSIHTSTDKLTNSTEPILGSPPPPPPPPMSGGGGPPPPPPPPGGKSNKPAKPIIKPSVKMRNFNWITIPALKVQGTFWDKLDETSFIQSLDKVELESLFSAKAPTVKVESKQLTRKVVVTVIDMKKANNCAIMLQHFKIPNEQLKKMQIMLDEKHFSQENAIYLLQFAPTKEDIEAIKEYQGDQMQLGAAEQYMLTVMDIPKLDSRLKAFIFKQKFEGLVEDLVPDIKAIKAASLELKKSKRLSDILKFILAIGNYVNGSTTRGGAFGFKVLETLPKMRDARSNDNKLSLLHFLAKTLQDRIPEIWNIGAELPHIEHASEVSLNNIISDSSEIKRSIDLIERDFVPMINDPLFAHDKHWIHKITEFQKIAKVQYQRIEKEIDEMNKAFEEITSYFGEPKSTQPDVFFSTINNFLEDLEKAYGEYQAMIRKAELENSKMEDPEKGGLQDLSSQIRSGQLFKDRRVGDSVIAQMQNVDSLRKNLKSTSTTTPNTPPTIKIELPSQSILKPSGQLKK

| Substance | effect of a mutation on the interaction |
| --- | --- |
| Rho-related protein rac1A (Dictyostelium discoideum (Slime mold)), P34144 G12V | decreasing interaction |
| Rho-related protein rac1A (Dictyostelium discoideum (Slime mold)), P34144 T17N | disrupting interaction |
